Measurements from US20230049752A1 (University of California, published 2023).
One block for each binder: values may come before it.

Columns and labels:
[1] = molecular target: human Claudin-6 (CLDN6) (human) (UniProt P56747); test: FACS, limiting dilution, UMUC4 cells
[2] = molecular target: human Claudin-6 (CLDN6) (human) (UniProt P56747); test: FACS, limiting dilution, ARK2 cells
[3] = molecular target: human Claudin-6 (CLDN6) (human) (UniProt P56747); test: FACS, limiting dilution, OV90 cells

B3: AB S6 (antibody, V domains shown)
VH: EVQLLESGGGLVQPGGSMRLSCAASGFTFSNYWMNWVRQAPGKGLEWLAQIRLKSDNYVTHYADSVKGRFTISRDDSKRTVYLQMNSLRAEDTGTYYCNDGPPSGSWGQGTLLTVSS
VL: DIQMTQSPSSLSASVGDRVTITCRISENIYSYLAWYQQKPGKAPKLLVYNAKILVEGVPSRFSGSGSGTDFTLTISSLQPEDFGTYYCQHHYTVPWTFGQGTKLEIK
FACS signal at 0.32 nM [1]: 1320 | FACS signal at 1.6 nM [1]: 1690 | FACS signal at 8 nM [1]: 3300 | FACS signal at 40 nM [1]: 4120 | FACS signal at 200 nM [1]: 12500 | FACS signal at 1000 nM [1]: 42300 | FACS signal at 0.32 nM [2]: 448 | FACS signal at 1.6 nM [2]: 765 | FACS signal at 8 nM [2]: 3800 | FACS signal at 40 nM [2]: 14600 | FACS signal at 200 nM [2]: 54100 | FACS signal at 0.32 nM [3]: 467 | FACS signal at 1.6 nM [3]: 791 | FACS signal at 8 nM [3]: 2950 | FACS signal at 40 nM [3]: 12600 | FACS signal at 200 nM [3]: 38600 | FACS signal at 1000 nM [3]: 76600

B4: AB S7 (antibody, V domains shown)
VH: QVQLVQSGAEVKKPGASVKMSCKASGYTFTTYTIHWVRQAPGQGLEWIGFINPSSGYTEYAQKFQGRVTLTADKSTSTVYMELSSLRSEDTAVYFCANGDYYVAYWGQGTLVTVSS
VL: DIQLTQSPSSLSASVGDRVTMTCTASSSVSSTYFHWYQQKPGKAPKLWIYSTSNLASGVPSRFSGSGSGTDYTLTISSMQPEDAATYYCHQYHRSPLTFGQGTKLEIK
FACS signal at 0.32 nM [1]: 1440 | FACS signal at 1.6 nM [1]: 1790 | FACS signal at 8 nM [1]: 3940 | FACS signal at 40 nM [1]: 7970 | FACS signal at 200 nM [1]: 16700 | FACS signal at 1000 nM [1]: 37300 | FACS signal at 0.32 nM [2]: 876 | FACS signal at 1.6 nM [2]: 2350 | FACS signal at 8 nM [2]: 6290 | FACS signal at 40 nM [2]: 16000 | FACS signal at 200 nM [2]: 47000 | FACS signal at 1000 nM [2]: 78700 | FACS signal at 0.32 nM [3]: 586 | FACS signal at 1.6 nM [3]: 1910 | FACS signal at 8 nM [3]: 4500 | FACS signal at 40 nM [3]: 8570 | FACS signal at 200 nM [3]: 24000 | FACS signal at 1000 nM [3]: 53900

B5: AB S8 (antibody, V domains shown)
VH: QVQLVQSGAEVKKPGASVKMSCKASGYTFTTYTMHWVRQAPGQGLEWIGVINPSSGYTEYAQKFQGRVTLTADKSTSTVYMELSSLRSEDTAVYFCANGDYYVGYWGQGTLVTVSS
VL: DIQLTQSPSSLSASVGDRVTMTCTASSSVSSTYFHWYQQKPGKAPKLWIYSTSNLASGVPSRFSGSGSGTDYTLTISSMQPEDAATYYCHQYHRSPLTFGQGTKLEIK
FACS signal at 0.32 nM [1]: 720 | FACS signal at 1.6 nM [1]: 6220 | FACS signal at 8 nM [1]: 7200 | FACS signal at 40 nM [1]: 16600 | FACS signal at 200 nM [1]: 32900 | FACS signal at 1000 nM [1]: 40500 | FACS signal at 0.32 nM [2]: 1640 | FACS signal at 1.6 nM [2]: 10400 | FACS signal at 8 nM [2]: 42600 | FACS signal at 0.32 nM [3]: 834 | FACS signal at 1.6 nM [3]: 6410 | FACS signal at 8 nM [3]: 26700 | FACS signal at 40 nM [3]: 85900

Further lines, results first:

FACS signal at 0.32 nM [1]: 518 | FACS signal at 1.6 nM [1]: 651 | FACS signal at 8 nM [1]: 1300 | FACS signal at 40 nM [1]: 4120 | FACS signal at 200 nM [1]: 13500 | FACS signal at 1000 nM [1]: 35000 | FACS signal at 0.32 nM [2]: 354 | FACS signal at 1.6 nM [2]: 438 | FACS signal at 8 nM [2]: 1720 | FACS signal at 40 nM [2]: 6350 | FACS signal at 200 nM [2]: 31500 | FACS signal at 1000 nM [2]: 62500 | FACS signal at 0.32 nM [3]: 432 | FACS signal at 1.6 nM [3]: 515 | FACS signal at 8 nM [3]: 1360 | FACS signal at 40 nM [3]: 4590 | FACS signal at 200 nM [3]: 15900 | FACS signal at 1000 nM [3]: 42000
B1: AB S4 (antibody, V domains shown)
VH: EVQLLESGGGLVQPGGSMRLSCAASGFTFSNYWMNWVRQAPGKGLEWIAQIRLKSDNYATHYTDSVKGRFTISRDDSKSTVYLQMNSLRAEDTGTYYCNDGPPSGSWGQGTLLTVSS
VL: DIQMTQSPSSLSASVGDRVTITCRISENIYSYLAWYQQKPGKAPKLLVYNAKILVEGVPSRFSGSGSGTDFTLTISSLQPEDFGTYYCQHHYTVPWTFGQGTKLEIK

FACS signal at 0.32 nM [1]: 481 | FACS signal at 1.6 nM [1]: 885 | FACS signal at 8 nM [1]: 2340 | FACS signal at 40 nM [1]: 7080 | FACS signal at 200 nM [1]: 19000 | FACS signal at 1000 nM [1]: 47200 | FACS signal at 0.32 nM [2]: 372 | FACS signal at 1.6 nM [2]: 997 | FACS signal at 8 nM [2]: 5560 | FACS signal at 40 nM [2]: 25600 | FACS signal at 200 nM [2]: 78800 | FACS signal at 0.32 nM [3]: 558 | FACS signal at 1.6 nM [3]: 1040 | FACS signal at 8 nM [3]: 5220 | FACS signal at 40 nM [3]: 22500 | FACS signal at 200 nM [3]: 73300
B2: AB S5 (antibody, V domains shown)
VH: EVQLLESGGGLVQPGGSMRLSCAASGFTFSNYWMNWVRQAPGKGLEWLAQIRLKSDNYATHYTDSVKGRFTISRDDSKRTVYLQMNSLRAEDTGIYYCSDGPPSGSWGQGTLLTVSS
VL: DIQMTQSPSSLSASVGDRVTITCRISENIYSYLAWYQQKPGKAPKLLVYNAKILVEGVPSRFSGSGSGTDFTLTISSLQPEDFGTYYCQHHYTVPWTFGQGTKLEIK
